In patent publication US20200297842A1 (published 2020):

How the values were obtained:
[1] = target: T1, human SIRPγ expressed on cells (human, UniProt Q9P1W8 29-387); experiment: flow cytometry on naive human CD3 T cells expressing SIRPγ
T1 construct: Endogenous SIRPγ on Jurkat T-ALL cells and on human CD3+ T cells; also called SIRPγ expressing Jurkat cells; Human T Cells Expressing SIRPγ
Protocol: (§1) Human CD3 T cells, isolated from peripheral blood mononuclear cells (Astarte Biologics) were incubated in 96-well V-bottom plates at 2.5 \ 10⁵ cells/well for 1 h at 37° C., 5% CO₂ with serial dilutions of SIRP mAbs in binding buffer containing 1 mM EDTA (Sigma Aldrich), 1% FBS (Biowest) in PBS (Corning). The cells were then washed and stained for 45 min under the same conditions with donkey anti-mouse IgG fluorescein isothiocyanate (FITC)-linked secondary antibody (Jackson ImmunoResearch Laboratories). The cells were subsequently stained with anti-CD3 conjugated to 3-carboxy-6,8-difluoro-7-hydroxycoumarin (Pacific Blue) fluorophore (BioLegend) for 30 min on ice, washed and analyzed by flow cytometry (Attune, Life Technologies). Binding was assessed as the median FITC fluorescence intensity of CD3⁺ cells, subtracted from CD3⁺ cells stained with the secondary antibody only. All SIRP antibodies were generated in-house except for LSB2.20 (BioLegend). For activated T cells, prior to the binding assay CD3 T cells were activated for 72 h in a 96-well flat-bottom plate coated with 10 μg/ml anti-CD3 (clone UCHT1; BioLegend), at 1×10⁵ cells/well in the presence of 0.5 μg/ml anti-CD28 (clone CD28.2; BioLegend).

[2] = target: T1, human SIRPγ expressed on cells; experiment: flow cytometry on activated human CD3 T cells expressing SIRPγ
Protocol: as §1

[3] = target: T1, human SIRPγ expressed on cells; experiment: flow cytometry on naive human CD3 T cells expressing SIRPγ (second column)
Protocol: as §1

[4] = target: T2, Fc tagged human SIRPα (ACRO # SIG-H5251, genotype variant 1) (human, UniProt P78324 31-370, limits assumed); experiment: ELISA, plate-coated Fc tagged human SIRPα; apparent Kd
T2 construct: Bought protein; also called Fc tagged human SIRP alpha; recombinant human SIRPα; not shown: Fc tag
T2 sequence (P78324 31-370 limits assumed, change not shown, form in doubt): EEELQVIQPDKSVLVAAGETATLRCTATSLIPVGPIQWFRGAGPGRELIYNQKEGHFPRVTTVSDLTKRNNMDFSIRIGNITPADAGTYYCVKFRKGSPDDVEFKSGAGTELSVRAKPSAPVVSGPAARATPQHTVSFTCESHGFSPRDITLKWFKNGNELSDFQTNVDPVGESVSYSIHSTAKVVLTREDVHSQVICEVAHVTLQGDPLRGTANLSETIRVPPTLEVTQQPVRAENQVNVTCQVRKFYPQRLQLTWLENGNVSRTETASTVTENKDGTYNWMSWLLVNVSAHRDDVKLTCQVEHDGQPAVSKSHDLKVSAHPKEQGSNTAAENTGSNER
Protocol: The binding of anti-SIRP monoclonal antibodies (mAbs) of the present disclosure to SIRP alpha (SIRPα) was determined by solid phase ELISA using an Fc tagged human SIRP alpha. Binding by soluble anti-SIRP antibodies was measured in vitro.
Fc tagged human SIRPα (ACRO # SIG-H5251, genotype variant 1) is adsorbed to high-binding microtiter plates at a concentration of 1 μg/ml diluted in phosphate buffered saline (PBS) overnight at 4° C. The coating solution is removed, the wells are washed and then blocked with 75% casein in PBS containing 0.5% Tween 20 (PBST) for 60 minutes at room temperature while shaking. Blocking solution is removed, the wells are washed and incubated for 60 minutes at room temperature while shaking with either murine or human anti-SIRP mAbs diluted in PBST at a starting concentration of 30 μg/ml and reducing the concentration in 3-fold serial dilutions. Wells are washed three times with PBST and incubated for 60 minutes at room temperature while shaking with an HRP-labeled donkey anti-mouse or anti-human secondary antibody (Jackson ImmunoResearch Laboratories) diluted 1:10,000 in PBST. The wells are washed and then incubated with peroxidase substrate and the absorbance at 450 nm measured. The apparent affinities were calculated using a non-linear fit model (GraphPad Prism).

[5] = target: T3, Fc tagged human SIRPγ (ACRO # SIG-H5253) (human, UniProt Q9P1W8 29-360); experiment: ELISA, plate-coated Fc tagged human SIRPγ; apparent Kd
T3 construct: Bought protein; it includes the transmembrane and cytoplasmic part, which a soluble Fc fusion would not carry; also called Fc tagged human SIRP gamma; recombinant human SIRP gamma; not shown: Fc tag
T3 sequence (Q9P1W8 29-360 limits assumed): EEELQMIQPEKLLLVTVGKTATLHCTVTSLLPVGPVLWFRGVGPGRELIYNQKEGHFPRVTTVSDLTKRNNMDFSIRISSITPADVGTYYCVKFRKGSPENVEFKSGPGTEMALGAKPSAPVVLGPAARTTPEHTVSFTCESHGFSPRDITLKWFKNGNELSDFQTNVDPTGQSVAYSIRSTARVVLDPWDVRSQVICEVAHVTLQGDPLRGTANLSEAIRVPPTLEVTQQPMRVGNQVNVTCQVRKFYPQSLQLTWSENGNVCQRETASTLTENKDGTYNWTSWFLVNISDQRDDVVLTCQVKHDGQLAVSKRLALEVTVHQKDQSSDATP
Protocol: The binding of anti-SIRP antibodies of the present disclosure to SIRP gamma (SIRPγ) was determined by ELISA using an Fc tagged human SIRPγ. Binding by soluble anti-SIRP antibodies was measured in vitro.
Fc tagged human SIRPγ (ACRO # SIG-H5253) is adsorbed to high-binding microtiter plates at a concentration of 1 μg/ml in phosphate buffered saline (PBS) overnight at 4° C. The coating solution is removed, the wells are washed and then blocked with 75% casein in PBS containing 0.5% Tween 20 (PBST) for 60 minutes at room temperature while shaking. Blocking solution is removed, the wells are washed and incubated for 60 minutes at room temperature while shaking with anti-SIRP mAbs diluted in PBST at a starting concentration of 30 μg/ml and reducing the concentration in 3-fold serial dilutions. Wells are washed three times with PBST and incubated for 60 minutes at room temperature while shaking with an HRP labeled donkey anti-mouse or anti-human secondary antibody (Jackson ImmonResearch Laboratories) diluted 1:10,000 in PBST. The wells are washed and then incubated with peroxidase substrate and the absorbance at 450 nm determined. The apparent affinities were calculated using a non-linear fit model (GraphPad Prism).

[6] = target: T4, human SIRPα expressed on cells (human, UniProt P78324 31-504); experiment: flow cytometry on human monocyte-derived dendritic cells; apparent Kd
T4 construct: whole, on cells; Endogenous SIRPα of THP-1 cells and of donor-derived macrophages and dendritic cells; also called SIRPα expressing THP-1 cells; cell-expressed SIRPα on dendritic cells and/or macrophages
T4 sequence (P78324 31-504): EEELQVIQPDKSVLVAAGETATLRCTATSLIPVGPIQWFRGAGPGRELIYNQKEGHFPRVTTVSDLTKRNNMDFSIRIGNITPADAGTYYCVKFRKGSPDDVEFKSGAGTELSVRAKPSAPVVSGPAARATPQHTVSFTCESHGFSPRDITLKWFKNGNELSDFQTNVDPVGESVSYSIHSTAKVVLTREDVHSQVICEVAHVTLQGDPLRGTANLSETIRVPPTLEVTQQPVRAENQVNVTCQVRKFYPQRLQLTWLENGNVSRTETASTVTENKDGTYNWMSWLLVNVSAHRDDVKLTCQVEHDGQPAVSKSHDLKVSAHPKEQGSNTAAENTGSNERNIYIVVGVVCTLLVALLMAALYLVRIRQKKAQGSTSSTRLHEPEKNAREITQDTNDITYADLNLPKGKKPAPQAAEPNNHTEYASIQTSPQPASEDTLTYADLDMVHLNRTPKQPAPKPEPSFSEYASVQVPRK
Protocol: (§2) Human CD14⁺ monocytes, isolated from peripheral blood mononuclear cells (Astarte Biologics) were differentiated in vitro for seven days into macrophages or dendritic cells. For macrophage differentiation, monocytes were incubated in AIM-V media (Life Technologies) supplemented with 50 ng/ml M-CSF (Biolegend) for seven days. For dendritic cell differentiation, monocytes were incubated in AIM-V media (Life Technologies) in the presence of 10% human AB serum (Valley Biomedical), 200 ng/ml GM-CSF (Biolegend) and 50 ng/ml IL-4 (Biolegend). The cells were incubated for 1 h at 37° C., 5% CO₂ with serial dilutions of SIRP mAbs in binding buffer containing 1 mM EDTA (Sigma Aldrich) and 1% FBS (Biowest) in PBS (Corning). The cells were then washed and stained for 45 min under the same conditions with donkey anti-mouse IgG fluorescein isothiocyanate (FITC)-linked secondary antibody (Jackson ImmunoResearch Laboratories). The cells were subsequently stained with anti-CD14 or anti-CD11c conjugated to Alexa Fluor 647 fluorophore (Life Technologies and Biolegend, respectively) for 30 min on ice, washed and analyzed by flow cytometry (Attune, Life Technologies). Binding was assessed as the median FITC fluorescence intensity of CD14⁺ or CD11c⁺ cells, subtracted from cells stained with the secondary antibody only.

[7] = target: HIS tagged human SIRPα (ACRO # SIG-H5225) (human) (UniProt P78324); experiment: blocking ELISA: mAb on plate-coated HIS tagged human SIRPα, then Fc tagged human CD47
HIS tagged human SIRPα (ACRO # SIG-H5225) (human), sequence (P78324 31-370): as the sequence (P78324 31-370 limits assumed, change not shown, form in doubt) above

[8] = target: T3, Fc tagged human SIRPγ (ACRO # SIG-H5253); experiment: blocking ELISA: mAb with human SIRPγ (ACRO # SIG-H5253) on plate-coated HIS tagged human CD47
Protocol: HIS tagged human CD47 (ACRO # CD7-H5227) is adsorbed to high-binding microtiter plates at a concentration of 2 μg/ml diluted in PBS overnight at 4° C. The coating solution is removed, the wells are washed and then blocked with 75% casein in PBS containing 0.5% Tween 20 (PBST) for 60 minutes at room temperature while shaking. Blocking solution is removed, the wells are washed and incubated for 60 minutes at room temperature while shaking with anti-SIRP mAbs diluted in PBST at a starting concentration of 30 μg/ml and reducing the concentration in 3 fold serial dilutions and 0.5 μg/ml of human SIRPγ (ACRO # SIG-H5253). Wells are washed three times with PBST and incubated for 60 minutes at room temperature while shaking with an HRP labeled donkey anti-mouse or anti-human secondary antibody (Jackson ImmunoResearch Laboratories) diluted 1:20,000 in PBST. The wells are washed and then incubated with peroxidase substrate and the absorbance at 450 nm determined. The IC₅₀ was calculated using a non-linear fit model (GraphPad Prism).

[9] = target: T4, human SIRPα expressed on cells; experiment: flow cytometry on human monocyte-derived macrophages; apparent Kd
Protocol: as §2

T1 sequence (Q9P1W8 29-387): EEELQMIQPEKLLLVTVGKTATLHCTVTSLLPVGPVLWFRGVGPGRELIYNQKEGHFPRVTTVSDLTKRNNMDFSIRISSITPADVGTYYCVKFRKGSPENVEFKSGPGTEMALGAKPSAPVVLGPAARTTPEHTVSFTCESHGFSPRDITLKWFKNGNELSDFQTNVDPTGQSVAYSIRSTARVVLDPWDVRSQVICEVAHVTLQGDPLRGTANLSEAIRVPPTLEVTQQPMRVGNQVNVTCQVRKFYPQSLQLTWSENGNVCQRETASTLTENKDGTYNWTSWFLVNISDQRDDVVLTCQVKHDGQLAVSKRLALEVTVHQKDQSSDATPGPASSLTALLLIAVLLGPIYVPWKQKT

Molecule	Kd [1] [pM]	Kd [2] [pM]	Kd [3] [pM]	Kd [4] [pM]	Kd [5] [pM]	Kd [6] [pM]	IC50 [7] [pM]	IC50 [8] [pM]	Kd [9] [pM]
LSB2.20 (antibody)	750	950	1260	–	–	–	–	–	–
SIRP3 (antibody, mouse IgG1, kappa, V domains shown, Hybridoma-derived mouse mAb) VH: EVQLQQSGPEVVKPGASVKMSCKASGYTFTSYVMHWVKQKPGQGLEWIGYINPYNDGPKYNEKFKGKATLTSDKSSSTAYMELSSLTSEDSAVYFCARWDYFNSASGFAFWGQGTLVTVSA VL: EIVLTQSPTTMAASPGEKITIICSASSIIGSDFLHWYQQRPGFSPKFLIYRTSILASGVPTRFTGSGSGTSYSLTIGTMEAEDVATYYCQQGSGLPLTFGSGTKLEMKR	80.7	–	–	289	170	3.47	2700	960	–
SIRP5 (antibody, V domains shown) VH: QVQLQQSAAELARPGASVKMSCKASGYTFTSYTMHWVKQRPGQGLEWIGYINPTIGYTEYNQKFKDKTTLTADKSSSTAYMQLSSLTSEDSAVYYCVRLVITSVLGRAMDYWGQGTSVTVSS VL: QIVLTQSPALMSASPGEKVTMTCSASSSVSYMYWFQQKPRSSPKPWIYLTSNLASGVPARFSGSGSGTSYSLTISSMEAEDAATYYCQQWSGNPFTFGSGTKLEIK	–	–	–	65	126	770	–	163	–
SIRP4 (antibody, V domains shown, detected with anti-mouse secondary antibody in the cell assays) VH: EVQLQQSGPDLVKPGASVKISCKASGYSFTDYFLNWVKQSHGKSLEWIGRINPYNGDSFINQNFRDKATLTVDKSSTTAHMDLLSLTSEDSAIYYCGRGGYDGYFIAYFDYWGQGSLVTVSA VL: DIKLTQSQSSMYSSLGQRVTITCKASQDINSHLSWFQEKPGKSPKTLIYRANRLADGVPSRFSGSGSGQDYFLTISSLEYEDVGIYYCLQYDEFPYTFGGGTKLEIK	–	–	–	161	274	50	710	440	20.7
SIRP2 (antibody, mouse IgG1, kappa, V domains shown, Hybridoma-derived mouse mAb) VH: EVKLVESGGGLVQPGGSLKLSCAASGFSFSGCTMSWIRQTPERRLEWVAYISNGGDITYYPDTVKGRFTISRDNAKNSLYLQMSSLKSEDTAMYYCARLDGYYYAMDFWGQGTSVTVSS VL: DILLTQSPAILSVSPGERVSFSCRASQSIGTSIHWYQQRTNGSPRLLIKYGSESISGIPSRFSGSGSGTDFTLSINSVESEDIADYYCQQSNTWPLTFGDGTKLELKR	–	–	–	182	734	–	3000	3500	–
SIRP7 (antibody, V domains shown) VH: EVQLQQSGPELVKPGASVKMSCRASGYTFSTYVMHWIKHRPGQGLEWIGYINPNNDGPNYNEKFKGKATLTSDISSSTAYMELSSLTSEDSAVYFCSRWDSYNSAAGFAYWGHGTLVTVSA VL: EIVLTQSPTTMAASPGEKITIICSASSSISSNFLHWYQQKPGFSPRFLIYRTSILASGVPTRFSGSGSGTSYSLTIDTMEAEDVATYYCQQGSGLPLTFGSGTKLEIK	83.9	–	–	197	99	–	1100	630	–
KWAR-23 (antibody, V domains shown) VH: EVQLQQSGAELVKPGASVKLSCTASGFNIKDYYIHWVQQRTEQGLEWIGRIDPEDGETKYAPKFQDKATITADTSSNTAYLHLSSLTSEDTAVYYCARWGAYWGQGTLVTVSS VL: QIVLTQSPAIMSASPGEKVTLTCSASSSVSSSYLYWYQQKPGSSPKLWIYSTSNLASGVPARFSGSGSGTSYSLTISSMEAEDAASYFCHQWSSYPRTFGAGTKLELK	4.04	6.22	1.59	–	–	23.4	–	–	–
OSE-18D5 (antibody, from another filing, V domains shown) VH: QVQLQQPGAELVRPGSSVKLSCKASGYTFTSYWVHWVKQRPIQGLEWIGNIDPSDSDTHYNQKFKDKASLTVDKSSSTAYMQLSSLTFEDSAVYYCVRGGTGTMAWFAYWGQGTLVTVSA VL: DVVMTQTPLSLPVSLGDQASISCRSSQSLVHSYGNTYLYWYLQKPGQSPKLLIYRVSNRFSGVPDRFSGSGSGTDFTLKISRVEAEDLGVYFCFQGTHVPYTFGSGTKLEIK	8410	–	–	–	–	41.2	–	–	37.3
SIRP9 (antibody, V domains shown, detected with anti-mouse secondary antibody in the cell assays) VH: EVQLQESGAELVRPGASVKLSCKALGYTFTDYEIHWVKETPVYGLEWIGDIHPGSGGTANNQKFKGKATLTADKSSNTAYMELSSLTSEDSAVYYCTRAVSGYYAMDYWGQGTSVTVSS VL: DIQMTQSSSSFSGSLGDRLTINCKASEDIYDRVAWYQQKPGNAPRLLISGTASLETGVLSRFSGSGSGKDYTLSINGLQAEDVATYYCQQYWTTPWTFGGGTKLEIK	–	263	1410	583	510	–	–	–	93.7
